# Paper doi:10.1101/2020.09.01.278846 (bioRxiv, 2020)
# Molecular target: the molecule itself
# Assay: bead aggregation assay
protein,measurement,value
hs PCDH24 EC1-MAD10Fc (Fc fusion) NVAPKFLANMTSVILPEDLPVGAQAFWLVAEDQDNDPLTYGMSGPNAYFFAVTPKTGEVKLASALDYETLYTFKVTISVSDPYIQVQREMLVIVEDRNDNAPVFQNTAFSTSINETLPVGSVVFSVLAVDKDMGSAGMVVYSIEKVIPSTGDSEHLFRILANGSIVLNGSLSYNNKSAFYQLELKACDLGGMYHNTFTIQCSLPVFLSISVVDQPDLDPQFVREFYSASVAEDAAKGTSVLTVEAVDGDKGINDPVIYSISYSTRPGWFDIGADGVIRVNGSLDREQLLEADEEVQLQVTATETHLNIYGQEAKVSIWVTVRVMDVNDHKPEFYNCSLPACTFTPEEAQVNFTGYVDEHASPRIPIDDLTMVVYDPDKGSNGTFLLSLGGPDAEAFSVSPERAVGSASVQVLVRVSALVDYERQTAMAVQVVATDSVSQNFSVAMVTIHLRDINDHRPTFPQSLYVLTVPEHSATGSVVTDSIHATDPDTGAWGQITYSLLPGNGADLFQVDPVSGTVTVRNGELLDRESQAVYYLTLQATDGGNLSSSTTLQIHLLDINDNAPVVSGSYNIFVQEEEGNVSVTIQAHDNDEPGTNNSRLLFNLLPGPYSHNFSLDPDTGLLRNLGPLDREAIDPALEGRIVLTVLVSDCGEPVLGTKVNVTITVEDINDNLPIFNQSSYNFTVKEEDPGVLVGVVKAWDADQTEANNRISFSLSGSGANYFMIRGLVLGAGWAEGYLRLPPDVSLDYETQPVFNLTVSAENPDPQGGETIVDVCVNVKDVNDNPPTLDVASLRGIRVAENGSQHGQVAVVVASDVDTSAQLEIQLVNILCTKAGVDVGSLCWGWFSVAANGSVYINQSKAIDYEACDLVTLVVRACDLATDPGFQAYSNNGSLLITIEDVNDNAPYFLPENKTFVIIPELVLPNREVASVRARDDDSGNNGVILFSILRVDFISKDGATIPFQGVFSIFTSSEADVFAGSIQPVTSLDSTLQGTYQVTVQARDRPSLGPFLEATTTLNLFTVDQSYRSRLQFSTPKEEVGANRQAINAALTQATRTTVYIVDIQDIDSAARARPHSYLDAYFVFPNGSALTLDELSVMIRNDQDSLTQLLQLGLVVLGSQESQESDLSKQLIS,binding result,binds
